{"source": "patent US20230149374A1", "about": "“METHODS AND COMPOSITIONS FOR TREATING ATHEROSCLEROSIS” (Sanford Burnham Prebys Medical Discovery Institute, priority 2021, published 2023)", "origin": "cited, not measured here", "molecules": {"B1": {"name": "recombinant TNAP: recombinant TNAP administered for 8 months in a patient with TNAP deficiency (protein, UniProt P05186 18-501, looked up)", "Alkaline phosphatase, …": "LVPEKEKDPKYWRDQAQETLKYALELQKLNTNVAKNVIMFLGDGMGVSTVTAARILKGQLHHNPGEETRLEMDKFPFVALSKTYNTNAQVPDSAGTATAYLCGVKANEGTVGVSAATERSRCNTTQGNEVTSILRWAKDAGKSVGIVTTTRVNHATPSAAYAHSADRDWYSDNEMPPEALSQGCKDIAYQLMHNIRDIDVIMGGGRKYMYPKNKTDVEYESDEKARGTRLDGLDLVDTWKSFKPRYKHSHFIWNRTELLTLDPHNVDYLLGLFEPGDMQYELNRNNVTDPSLSEMVVVAIQILRKNPKGFFLLVEGGRIDHGHHEGKAKQALHEAVEMDRAIGQAGSLTSSEDTLTVVTADHSHVFTFGGYTPRGNSIFGLAPMLSDTDKKPFTAILYGNGPGYKVVGGERENVSMVDYAHNNYQAQSAVPLRHETHGGEDVAVFSKGPMAHLLHGVHEQNYVPHVMAYAACIGANLGHCAPAS"}}, "test_system": "patient with TNAP deficiency", "settings": "administration for 8 months, very high blood TNAP activity; cited from earlier work"}
{"molecule": "B1", "values": [{"measurement": "vascular calcium score", "value": "did not increase"}]}
